Experimental data taken from PMC7822847, “Structural insights into vesicle amine transport-1 (VAT-1) as a member of the NADPH-dependent quinone oxidoreductase family” (Scientific Reports, 2021).

Tests used:
[1] = target: the molecule itself; test: SEC; Superdex 200 (10/30), 10 mM Tris–HCl pH 7.2, 100 mM NaCl, 0.5 mM TCEP, 8 °C; higher concentrations (loaded at 300 µM, no NADP); dimers to tetramer (dimer–dimer)
[2] = target: the molecule itself; test: SEC; Superdex 200 (10/30), 10 mM Tris–HCl pH 7.2, 100 mM NaCl, 0.5 mM TCEP, 8 °C; low concentration (samples loaded at 10, 20, 50 µM; also with 10-fold molar NADP); monomers to dimer
[3] = target: the molecule itself; test: crystal structure; free form of VAT-1 (43–393), 2.3 Å; crystals from 100 mM BisTris pH 6.0, 200 mM sodium nitrate, 22% PEG 3350, 20 °C

Row | Protein | stoichiometry N [1] | stoichiometry N [2] | stoichiometry N [3]
1 | human VAT-1 (full-length, 1–393 residues) (natural protein, UniProt Q99536 1-393, looked up, Written as the protomer; dimer at low concentration, tetramer at 300 µM by SEC; also called vesicle amine transport protein-1; source: E. coli Rosetta 2 (DE3), purified (Glutathione Sepharose, HRV 3C cleavage, HiTrap SP, Superdex 200); not shown: GST, N-terminal, cleaved) MSDEREVAEAATGEDASSPPPKTEAASDPQHPAASEGAAAAAASPPLLRCLVLTGFGGYDKVKLQSRPAAPPAPGPGQLTLRLRACGLNFADLMARQGLYDRLPPLPVTPGMEGAGVVIAVGEGVSDRKAGDRVMVLNRSGMWQEEVTVPSVQTFLIPEAMTFEEAAALLVNYITAYMVLFDFGNLQPGHSVLVHMAAGGVGMAAVQLCRTVENVTVFGTASASKHEALKENGVTHPIDYHTTDYVDEIKKISPKGVDIVMDPLGGSDTAKGYNLLKPMGKVVTYGMANLLTGPKRNLMALARTWWNQFSVTALQLLQANRAVCGFHLGYLDGEVELVSGVVARLLALYNQGHIKPHIDSVWPFEKVADAMKQMQEKKNVGKVLLVPGPEKEN | 4 | 2 | –
2 | N-truncated human VAT-1 (43–393 residues) (domain or fragment, UniProt Q99536 43-393, looked up, Written as the protomer; homodimer in both crystal forms, dimer to tetramer (dimer-dimer) in solution by SEC; also called vesicle amine transport protein-1; source: E. coli Rosetta 2 (DE3), purified (Glutathione Sepharose, HRV 3C cleavage, HiTrap SP, Superdex 200); not shown: GST, N-terminal, cleaved) ASPPLLRCLVLTGFGGYDKVKLQSRPAAPPAPGPGQLTLRLRACGLNFADLMARQGLYDRLPPLPVTPGMEGAGVVIAVGEGVSDRKAGDRVMVLNRSGMWQEEVTVPSVQTFLIPEAMTFEEAAALLVNYITAYMVLFDFGNLQPGHSVLVHMAAGGVGMAAVQLCRTVENVTVFGTASASKHEALKENGVTHPIDYHTTDYVDEIKKISPKGVDIVMDPLGGSDTAKGYNLLKPMGKVVTYGMANLLTGPKRNLMALARTWWNQFSVTALQLLQANRAVCGFHLGYLDGEVELVSGVVARLLALYNQGHIKPHIDSVWPFEKVADAMKQMQEKKNVGKVLLVPGPEKEN | – | – | 2
